For assay [1], the target named is synthetic stem helix peptide (SARS-CoV-2 spike residues 1140-1164) (SARS-CoV-2), P0DTC2. The experiment in a line: ELISA, peptide adsorbed on the plate, mAb titrated. For orientation: In an ELISA, binding on a coated surface is turned into a signal by an enzyme label.
Assay [2] deals with synthetic fusion peptide (SARS-CoV-2 spike residues 808-833) (SARS-CoV-2), P0DTC2. The experiment in a line: ELISA, coated antigen, mAb titrated.

B1: Cov30-14 (antibody)
chain 1: QVQLVQSGAEVKKPGASVKVSCQTSGYTFTSYYMHWVRQAPGQGLEWMGLITPSGDDTYYAQRFQGRVTMTRDTSTSPTYMELSSLTSEDTAVYYCAKMSRAGGFDVWGQGTLVTVSS
chain 2: EVVLTQSPGTLSLSPGERATLSCRASQSITGRYLAWYQQKPGQAPRLLMYGESSRVTGIPDRFSGGGSGTDFTLTISRLEPEDFAVYYCQHFASSPPTYTFGQGTKLEIR
As to B1, in assay [1], the EC50 (read off the curve) stood at 0.03 µg/mL.

B2: COV44-79 (antibody)
chain 1: QVQLVESGGGVVQPGRSLRLSCAASGLTFSGYAMHWVRQAPGKGLEWVAVISRDARNKYYADSVKGRFTISRDNSKKTVYLEMNSLRVEDTAVYYCAILIIPGITEPGSPDALDIWGQGTMVSVSS
chain 2: DIQMTQSPSSMSASVGDRVTITCRASQDISKWLAWYQQRPGKAPKLLIYAASSLQSGVPSRFSGSGSGTDFTLTISSLQPEDFATYYCQQASSFPWSITFGQGTRLEIR
Regarding B2, the EC50 (read off the curve) in assay [2] was determined as 0.7 µg/mL.

B3: Cov89-22 (antibody)
chain 1: QEQLVQSGAEVKKPGASVKVSCKSSGFTFSYFYLHWVRQAPGQGLEWMGIINPRGDGTRYAQKFQGRVTMTRDASTGTLYMELRSLRSEDTAVYYCARGADHGAFDIWGQGTMVTVSS
chain 2: EIVLTQSPGTLSLSPGERATLSCRASQSVRRNYFAWYQQKRGQAPRLLIYDASTRATGIPDRFSGSGSGTDFTLTISRLEPEDFAVYYCQQYDSSPPMYIFGQGTKLEIK
For B3, in assay [1], the EC50 (read off the curve) came out at 0.02 µg/mL.

Broadly, the EC50 (read off the curve) is the concentration that produces a half-maximal response. Low readings indicate an effect from little substance, high ones a need for much substance.

These data come from patent US20240285753A1.
